Molecular target: HLA-A*02:01 (Homo sapiens, UniProt P04439, D140Y/D185E/D98H/E176V/E277Q/G131W/G231S/I119V/I121R/I166T/I218V/L300P/L318F/N151K/N90K/P208A/P217A/Q86G/Q94H/R138H/R169H/T345S)
Experiment: MHC binding assay: UV-ligand exchange with beta2m ELISA (peptide exchange yield)
Conditions: binding to HLA-A*02:01, β2m ELISA
Excerpt: Candidate peptides for T cell based therapies according to the present invention were further tested for their MHC binding capacity (affinity). The individual peptide-MHC complexes were produced by UV-ligand exchange, where a UV-sensitive peptide is cleaved upon UV-irradiation, and exchanged with the peptide of interest as analyzed. Only peptide candidates that can effectively bind and stabilize the peptide-receptive MHC molecules prevent dissociation of the MHC complexes. To determine the yield of the exchange reaction, an ELISA was performed based on the detection of the light chain (β2m) of stabilized MHC complexes. The assay was performed as generally described in Rodenko et al. (Rodenko et al., 2006).
96 well MAXISorp plates (NUNC) were coated over night with 2 ug/ml streptavidin in PBS at room temperature, washed 4× and blocked for 1 h at 37° C. in 2% BSA containing blocking buffer. Refolded HLA-A*02:01/MLA-001 monomers served as standards, covering the range of 15-500 ng/ml. Peptide-MHC monomers of the UV-exchange reaction were diluted 100 fold in blocking buffer. Samples were incubated for 1 h at 37° C., washed four times, incubated with 2 ug/ml HRP conjugated anti-β2m for 1 h at 37° C., washed again and detected with TMB solution that is stopped with […]. Absorption was measured at 450 nm. Candidate peptides that show a high exchange yield (preferably higher than 50%, most preferred higher than 75%) are generally preferred for a generation and production of antibodies or fragments thereof, and/or T cell receptors or fragments thereof, as they show sufficient avidity to the MHC molecules and prevent dissociation of the MHC complexes.

Substance | Peptide exchange (MHC class I binding score, peptide exchange yield)
3 (RVIDDSLVVGV; listed as Homo sapiens) [compound 3] | +++ (= ≥50% = +++)
5 (GLVDIMVHL; listed as Homo sapiens) [compound 5] | +++ (= ≥50% = +++)
7 (ALLQALMEL; listed as Homo sapiens) [compound 7] | +++ (= ≥50% = +++)
10 (QLIEKNWLL; listed as Homo sapiens) [compound 10] | +++ (= ≥50% = +++)
11 (LLDPKTIFL; listed as Homo sapiens) [compound 11] | +++ (= ≥50% = +++)
12 (RLLDPKTIFL; listed as Homo sapiens) [compound 12] | +++ (= ≥50% = +++)
13 (RLHDENILL; listed as Homo sapiens) [compound 13] | +++ (= ≥50% = +++)
16 (SLADLSLLL; listed as Homo sapiens) [compound 16] | +++ (= ≥50% = +++)
21 (YLMDDFSSL; listed as Homo sapiens) [compound 21] | +++ (= ≥50% = +++)
22 (LMYPYIYHV; listed as Homo sapiens) [compound 22] | +++ (= ≥50% = +++)
23 (ALLSPLSLA; listed as Homo sapiens) [compound 23] | +++ (= ≥50% = +++)
24 (KVWSDVTPL; listed as Homo sapiens) [compound 24] | +++ (= ≥50% = +++)
25 (LLWGHPRVALA; listed as Homo sapiens) [compound 25] | +++ (= ≥50% = +++)
26 (VLDGKVAVV; listed as Homo sapiens) [compound 26] | +++ (= ≥50% = +++)
30 (IITEVITRL; listed as Homo sapiens) [compound 30] | +++ (= ≥50% = +++)
31 (GLLETTGLLAT; listed as Homo sapiens) [compound 31] | +++ (= ≥50% = +++)
36 (TVLQELINV; listed as Homo sapiens) [compound 36] | +++ (= ≥50% = +++)
40 (KIWEELSVLEV; listed as Homo sapiens) [compound 40] | +++ (= ≥50% = +++)
41 (IVTEIISEI; listed as Homo sapiens) [compound 41] | +++ (= ≥50% = +++)

Substance | Peptide exchange (MHC class I binding score, peptide exchange yield)
44 (AVFNLVHVV; listed as Homo sapiens) [compound 44] | +++ (= ≥50% = +++)
45 (FLPVSVVYV; listed as Homo sapiens) [compound 45] | +++ (= ≥50% = +++)
47 (GLNGFNVLL; listed as Homo sapiens) [compound 47] | +++ (= ≥50% = +++)
48 (KISDFGLATV; listed as Homo sapiens) [compound 48] | +++ (= ≥50% = +++)
54 (YLVPGLVAA; listed as Homo sapiens) [compound 54] | +++ (= ≥50% = +++)
55 (HLFDKIIKI; listed as Homo sapiens) [compound 55] | +++ (= ≥50% = +++)
58 (HLLGEGAFAQV; listed as Homo sapiens) [compound 58] | +++ (= ≥50% = +++)
59 (ALADGIKSFLL; listed as Homo sapiens) [compound 59] | +++ (= ≥50% = +++)
60 (YLFSQGLQGL; listed as Homo sapiens) [compound 60] | +++ (= ≥50% = +++)
61 (ALYPKEITL; listed as Homo sapiens) [compound 61] | +++ (= ≥50% = +++)
62 (SLVENIHVL; listed as Homo sapiens) [compound 62] | +++ (= ≥50% = +++)
63 (KLLPMVIQL; listed as Homo sapiens) [compound 63] | +++ (= ≥50% = +++)
67 (FLIENLLAA; listed as Homo sapiens) [compound 67] | +++ (= ≥50% = +++)
68 (QLMNLIRSV; listed as Homo sapiens) [compound 68] | +++ (= ≥50% = +++)
75 (ALLDGALQL; listed as Homo sapiens) [compound 75] | +++ (= ≥50% = +++)
76 (FTAEFLEKV; listed as Homo sapiens) [compound 76] | +++ (= ≥50% = +++)
80 (VLTGQVHEL; listed as Homo sapiens) [compound 80] | +++ (= ≥50% = +++)
82 (ILAEEPIYIRV; listed as Homo sapiens) [compound 82] | +++ (= ≥50% = +++)
86 (SLFSNIESV; listed as Homo sapiens) [compound 86] | +++ (= ≥50% = +++)

Substance | Peptide exchange (MHC class I binding score, peptide exchange yield)
87 (KLLSLLEEA; listed as Homo sapiens) [compound 87] | +++ (= ≥50% = +++)
88 (LLLPLELSLA; listed as Homo sapiens) [compound 88] | +++ (= ≥50% = +++)
94 (YLDEVAFML; listed as Homo sapiens) [compound 94] | +++ (= ≥50% = +++)
95 (KLIDEDEPLFL; listed as Homo sapiens) [compound 95] | +++ (= ≥50% = +++)
98 (FVQEKIPEL; listed as Homo sapiens) [compound 98] | +++ (= ≥50% = +++)
99 (TLFGIQLTEA; listed as Homo sapiens) [compound 99] | +++ (= ≥50% = +++)
100 (ALQSFEFRV; listed as Homo sapiens) [compound 100] | +++ (= ≥50% = +++)
108 (FIANLPPELKA; listed as Homo sapiens) [compound 108] | +++ (= ≥50% = +++)
109 (ILGSFELQL; listed as Homo sapiens) [compound 109] | +++ (= ≥50% = +++)
111 (AQLEGKLVSI; listed as Homo sapiens) [compound 111] | +++ (= ≥50% = +++)
112 (ILAQDVAQL; listed as Homo sapiens) [compound 112] | +++ (= ≥50% = +++)
122 (SIIDTELKV; listed as Homo sapiens) [compound 122] | +++ (= ≥50% = +++)
125 (AALEVLAEV; listed as Homo sapiens) [compound 125] | +++ (= ≥50% = +++)
126 (QLREAFEQL; listed as Homo sapiens) [compound 126] | +++ (= ≥50% = +++)
130 (QLYGSAITL; listed as Homo sapiens) [compound 130] | +++ (= ≥50% = +++)
131 (SLYPHFTLL; listed as Homo sapiens) [compound 131] | +++ (= ≥50% = +++)
132 (ALLNNVIEV; listed as Homo sapiens) [compound 132] | +++ (= ≥50% = +++)
136 (LLWDAPAKC; listed as Homo sapiens) [compound 136] | +++ (= ≥50% = +++)
